Experiments:
[1] = molecular target: T1, pyro-Glu(3-40/42) fibrils (N-terminal pyroglutamate (pyro-Glu at Aβ position 3)); assay: SPR, fibrils
T1 construct: Fibrillar aggregate of pyro-Glu(3-40/42)-Aβ

wild-type Aβ(1-40) = molecular target: T2, wild-type Aβ(1-40); assay: SPR (Table 1)
T2 construct: also called WT Aβ(1-40); Aβ (1-40) monomers

Aβ (1-40) fibrils = molecular target: T3, Aβ (1-40) fibrils; assay: SPR / Europium ELISA
T3 construct: Fibrillar aggregate of wild-type Aβ(1-40)

pyro-Glu(3-40/42)-Aβ [2] = molecular target: T4, pyro-Glu(3-40/42)-Aβ (N-terminal pyroglutamate (pyro-Glu at Aβ position 3)); assay: SPR; restated as (4.2 nM) in the line below
T4 construct: also called pyro-Glu(3-40/42) monomers; N-terminally modified pyro-glutamate Aβ

pyro-Glu(3-40/42)-Aβ [3] = molecular target: T4, pyro-Glu(3-40/42)-Aβ; assay: SPR or EU-ELISA (Table 1). Column 5 has no head of its own and is read as under the head 'KD for pyro-Glu (3-40/42)' printed at c4. Restated as (37.3 nM) in the line below. Differs from c4 (4.17E-9); second, unheaded column (c5) beside c4 under 'KD for pyro-Glu (3-40/42)'; probably the other peptide length (3-40 or 3-42), which the patent does not state

T4 sequence (peptide, as listed by the source): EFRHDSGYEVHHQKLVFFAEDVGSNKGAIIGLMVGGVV
T3 sequence (peptide, as listed by the source): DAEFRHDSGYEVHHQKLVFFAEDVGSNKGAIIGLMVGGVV

B1: PGA 5 (antibody, IgG1, V domains shown)
VH: EVKLVESGGGLVQPGGSLRLSCVTSGFTFTENYMSWVRQPPGKALEWLGFIRNKANGYTTEYSASVKGRFTISRDNSQSILYLQMNTLRAEDSATYYCARDWDYGSSHAMDYWGQGTSVTVSS
VL: DILLTQSPAILSVSPGERVSFSCRASQNIGTSMHWFQQRTNGSPRLLIKYASESVSGIPSRFSGSGSGTDFTLSINSVESGDIADYYCQQSNSWPFTFGSGTKLEI
notes: also called 1F2 2E3; PGAS
Kd [1]: 4.53 nM
binding result (wild-type Aβ(1-40)): no binding
binding result (Aβ (1-40) fibrils): no binding
Kd (pyro-Glu(3-40/42)-Aβ [2]): 4.17 nM
Kd (pyro-Glu(3-40/42)-Aβ [3]): 37.3 nM

— patent US20120045392A1 (CASE WESTERN RESERVE UNIVERSITY, published 2012)
